The values below come from paper PMC2912147 (Neuron, 2008).

This assay has as its target Flag-tagged full length HDAC1 (UniProt Q13547 1-482). Nature of the assay: co-IP.

A value given as a limit tells only on which side of the number the result lay.

Chain of Flag-tagged full length HDAC1 (Q13547 whole entry): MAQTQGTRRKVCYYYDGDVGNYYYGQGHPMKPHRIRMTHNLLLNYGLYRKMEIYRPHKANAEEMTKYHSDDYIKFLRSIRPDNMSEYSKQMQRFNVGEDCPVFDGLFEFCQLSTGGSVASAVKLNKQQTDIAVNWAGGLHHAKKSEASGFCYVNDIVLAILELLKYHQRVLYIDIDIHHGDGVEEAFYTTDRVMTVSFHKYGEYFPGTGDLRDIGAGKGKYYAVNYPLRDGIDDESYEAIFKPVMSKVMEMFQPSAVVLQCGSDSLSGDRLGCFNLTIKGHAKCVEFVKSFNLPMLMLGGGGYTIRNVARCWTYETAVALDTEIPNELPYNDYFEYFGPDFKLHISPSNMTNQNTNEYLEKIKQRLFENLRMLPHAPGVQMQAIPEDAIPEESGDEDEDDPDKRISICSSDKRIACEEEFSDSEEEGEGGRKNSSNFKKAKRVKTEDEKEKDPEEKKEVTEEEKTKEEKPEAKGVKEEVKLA

B1: GFP-p25 (full length p25, overexpressed in HEK293T cells) (domain or fragment)
chain: not shown
On to B1, for which the “fold interaction against p35” value is more than 12 fold.
